The DeepSol protein solubility set

Assay: soluble on expression in E. coli; label from the status in PepcDB or PDB records

Row | Sequence | soluble on expression in E. coli
1 | MENQAALCVLLSDRANTHAHIFVHPHFLSFTLTKSCFCCGNLIYWFVTLYLNFRSRKKSEKMRSRSGSGVRLDRILFMVEQTICSHQNPITALFANQKDFPGHAWVRDNVYIAQALWALYRAYMKCADFDEDLTKAKELGFTCVKMMQSILECLMRQAEKVELFKKYQRPLDALHSKFAVGTKGTVCGDADWGHLQMDAISLYLLTLAQITASGLQVVRNFDEVAFIQNLVYYIETGYRTPDYGVWERGDKTNQGIRELNASSIGMVKAALQALNDVGDLFVDGSRGSVVHVLPDEIEQCSAVLSSMLPRESFSKETDAALLGIISYPAFCVEDPELVSQTRETITQRLLGKYGCRRFMRDGYKTVLEDASRLYYNKSELQQFEDIECEWPIFLCYLILDAMYSKDDDAVEAYWRQLESVLVLSDKGFRLVPELYVVLKEHVSAEKAHPGTQDRVPGGATPFLWAQSLYVIICLLYEGFLLPAELDPLSRRLSVYEKRPPCEVQVTVLAESLDVQRELRAHDIHVQCVDEIDPVFTILPASALGQLLAKIGESKKLNLSGRPLDRPIGLLSTSRLYQIGNKFVIFTPQFMDSRRSHLMYDIRILTDEWSSELQYIYASWNSVSISGRPLVVLVITQGMLSTEGLSHFSNIHLNRHMKSTVIGAIKKINTGYLSGARVVMKDLSDFFRTTAVSKMEFRDKSAEDTLRSVAAEKVQFTLLTEDATEAKNEKITTPRGPRTLRRGESVKDRSAYTAVHKASMRHRSIALDSNDADLMKLRLAYKSRPRDLQDMDSTYQSPPPTQTPLGLVKEHSSGELRQQLLKTTRRGAENETTHRDLTAEQMNEMKADDLLDLVNETTVLEEQISIVHCLWMKFGPDYDTELGCQHITVRMLMEEVHTKACEAREWALVRLTAGLLKKQLEEPQQSCYSSFVSPFELKSMIFSLLSGRLLEEYAEDGIHYSDTIRETRTGIGSFRRQIEERKSLRKSTRSVGGLEIPKEEDEDEEADEDDFQFGIWLRHRRIDGALNRVPNGFYAILWDTVHKMPHGVKINDTVLHWGLTQEMTRKEIKFALESEEALNRIAEPEYRELVVETLWLLGRLEKLVLLEQPNIPRDRPLDVDHILHVANQIFVDHNKHLETIVMECCASSNPNNTRCDGARNICKHFYDSAPAGEYGTSHYIIRALMQLYS | not soluble
2 | MRILVSNDDGIFSPGIKALGLAMRALGEVFVVAPDMEQSAVGHGITVRRPLRFKHTQSAGFGEIPAYRVDGTPADCVVLGVHLLGRPDLVVSGINLGVNLGLDLTHSGTVAAALEGASLGIPSIAFSLDTSGEVLDFQEAARWALAIARAVGERGLPPGVLLNVNFPASRPKGLLVTRLSTHRFEDQVVERLDPEGKPYYWIAGTPAGEEEEGTDLWAVRRGYVSVTPVSLDLTAHGFLEALSGLLEGVAP | soluble
3 | MSLYYEQPIYIATQENWDLELNPQIRTNRGFGLYSTLRFLDSPYSTGELNFGAFRENSSYFHDENLKNQTHYGIELKYSRDDLIKSLLSDNFQEGLWIDATYLNDVDYLNLGSRDYRDLNSLVTSKINYFLADENNFYGAYARYYIDTSKLSNNTTLQEYPSFQYHRFLNNLFDERLRYSFDASFHNFYRPAGSYANELNLDLPISYHNAFFGDFLHFTFTERFYASFVNYSNDPERNHEHYFRNTHDFNLYTDLSKAYENFFHTLNLGVNYILPGAKSGKITQDYLEEYDKENEHTSLYAVQYFYNNEGQKKLKHRISLDYLNKQNEFYELENLLTYYFNENINLNSEVLYSYEQSRFTNVISQIEVNTNSKFNWMFSHAYQNDEYGKYSFIGTRANYIATPNYNLFGGIWFDTQRAHANMWELGYTYQRKCWNYSLMYRERIDPQLTSGGITAKNQSGVYFIFNFYPLGGVKYDFSLAESENKIEGHHHHHH | not soluble
4 | MGSDKIHHHHHHMPSDAINEGQAQDAPRMRAAEYVRMSTEHQQYSTENQADKIREYAVRRGIDIIKTYADEGKSGLRIDGRQALQSLIRDVEAGTADFDIILVYDVSRWGRFQDADESAYYEYICRRAGIQVAYCAEQFENDGSPVSTIVKGVKRAMAGEYSRELSAKVFAGQCRLIELGYRQGGPAGYGLRRTLVDVKGEVKAELSRGEHKSLQTDRVILRPGPDEEVTIVNQIYRWFIDDGMYESEIAGRLNGMRVRTDLDREWTRATVREVLTNEKYVGHNVYNRVSFKLKKLRVVNPPEMWIRRDAAFPGVVPPDVFYTAQGIIRARAHRYTNEELIERLRGLYRNRGFLSGVVINETEDMPCAAVYAHRFGSLVRAYQLVGFTPDRDYRYVEINRALRRMHPDVLRQIEGQIAGLGGIVQRDAATDVLIVNGEFTVSIVLARCHEAAGMPNRWKIRLDSSLAPDISVAARLESGNQAVRDYYLLPKVDIGSSNISLAERNAAEFESYRFETLDYLYGMAARSRVRLAA | not soluble
